Test results reported in publication PMC2997670 (The Biochemical journal, 2010).

Target: the molecule itself
Assay: SEC + SEC-MALS

Row | Protein | stoichiometry N
1 | PcpF, S-glutathionyl-(chloro)hydroquinone reductase of Sphingobium chlorophenolicum ATCC 39723 (enzyme, UniProt Q8KN33 1-313, looked up) MGLLIDGVWRDAWYDTKSSGGRFVRKESQYRGGLDAGFRGEPGRYHLYAGFACPWAHRVLIMRALKGLEEMISVSMVNAYMGENGWTFLPGDDVVPDSINGADYLYQVYTAADPTYTGRVTIPILWDKVEKRILNNESSEIIRILNSAFDDVGALPGDYYPAEFRPEIDRINARVYETLNNGVYRSGFATTQEAYEEAFYPLFDTLDWLEEHLTGREWLVGDRLTEADIRLFPTLVRFDAIYHGHFKCNLRRIADYPNLSRLVGKLASHERVAPTINLRHAKAHYYGSHPSVNPTGIVPVGPAQPLPGLTLQS | 2
2 | ECM4 (extracellular mutant 4) of Saccharomyces cerevisiae (enzyme, S. cerevisiae, UniProt P36156 1-370, looked up) MSKQWASGTNGAFKRQVSSFRETISKQHPIYKPAKGRYWLYVSLACPWAHRTLITRALKGLTSVIGCSVVHWHLDEKGWRFLDMEKQLEDSEDFLEHWHDVAGGIRTAKEDSSKSFAEIKNDSQRFMVDATNEPHYGYKRISDLYYKSDPQYSARFTVPVLWDLETQTIVNNESSEIIRILNSSAFDEFVDDDHKKTDLVPAQLKTQIDDFNSWVYDSINNGVYKTGFAEKAEVYESEVNNVFEHLDKVEKILSDKYSKLKAKYGEEDRQKILGEFFTVGDQLTEADIRLYTTVIRFDPVYVQHFKCNFTSIRAGYPFIHLWVRNLYWNYDAFRYTTDFDHIKLHYTRSHTRINPLGITPLGPKPDIRPL | 2
